B1: 2K2A (parent)
chain: ELREAFRLYDKEGNGYISTDVMREILAELDETLSSEDLDAMIDEIDADGSGTVDFEEFMGVMT

Variants of: B1
Assay: folding stability dG (cDNA display proteolysis); higher = more stable
Details: PBS, room temperature

Point of comparison: ELREAFRLYDKEGNGYISTDVMREILAELDETLSTEDLDAMIDEIDADGSGTVDFEEFMGVMT [S35T], “folding stability dG” value 1.81 kcal/mol. Against it:
- ELREAFRLYDKEGNGYISTDVMREILAELDETLSFEDLDAMIDEIDADGSGTVDFEEFMGVMT [S35F] — lower, 1.48 kcal/mol
- ELREAFRLYDKEGNGYISTDVMREILAELDETLSKEDLDAMIDEIDADGSGTVDFEEFMGVMT [S35K] — higher, 2.14 kcal/mol
- ELREAFRLYDKEGNGYISTDVMREILAELDETLSQEDLDAMIDEIDADGSGTVDFEEFMGVMT [S35Q] — higher, 2.05 kcal/mol
- ELREAFRLYDKEGNGYISTDVMREILAELDETLSREDLDAMIDEIDADGSGTVDFEEFMGVMT [S35R] — higher, 1.96 kcal/mol
- ELREAFRLYDKEGNGYISTDVMREILAELDETLSGEDLDAMIDEIDADGSGTVDFEEFMGVMT [S35G] — lower, 1.78 kcal/mol
- ELREAFRLYDKEGNGYISTDVMREILAELDETLSYEDLDAMIDEIDADGSGTVDFEEFMGVMT [S35Y] — lower, 1.53 kcal/mol
- ELREAFRLYDKEGNGYISTDVMREILAELDETLSHEDLDAMIDEIDADGSGTVDFEEFMGVMT [S35H] — higher, 1.82 kcal/mol
- ELREAFRLYDKEGNGYISTDVMREILAELDETLSDEDLDAMIDEIDADGSGTVDFEEFMGVMT [S35D] — higher, 1.92 kcal/mol
- ELREAFRLYDKEGNGYISTDVMREILAELDETLSAEDLDAMIDEIDADGSGTVDFEEFMGVMT [S35A] — higher, 1.92 kcal/mol
- ELREAFRLYDKEGNGYISTDVMREILAELDETLSWEDLDAMIDEIDADGSGTVDFEEFMGVMT [S35W] — lower, 1.48 kcal/mol
- ELREAFRLYDKEGNGYISTDVMREILAELDETLSMEDLDAMIDEIDADGSGTVDFEEFMGVMT [S35M] — higher, 1.86 kcal/mol
- ELREAFRLYDKEGNGYISTDVMREILAELDETLSEEDLDAMIDEIDADGSGTVDFEEFMGVMT [S35E] — higher, 2.15 kcal/mol
- ELREAFRLYDKEGNGYISTDVMREILAELDETLSPEDLDAMIDEIDADGSGTVDFEEFMGVMT [S35P] — higher, 2.06 kcal/mol
- ELREAFRLYDKEGNGYISTDVMREILAELDETLSVEDLDAMIDEIDADGSGTVDFEEFMGVMT [S35V] — lower, 1.77 kcal/mol
- ELREAFRLYDKEGNGYISTDVMREILAELDETLYSEDLDAMIDEIDADGSGTVDFEEFMGVMT [S34Y] — lower, 0.751 kcal/mol
- ELREAFRLYDKEGNGYISTDVMREILAELDETLLSEDLDAMIDEIDADGSGTVDFEEFMGVMT [S34L] — lower, 1.21 kcal/mol
- ELREAFRLYDKEGNGYISTDVMREILAELDETLRSEDLDAMIDEIDADGSGTVDFEEFMGVMT [S34R] — lower, 1.47 kcal/mol
- ELREAFRLYDKEGNGYISTDVMREILAELDETLISEDLDAMIDEIDADGSGTVDFEEFMGVMT [S34I] — lower, 0.894 kcal/mol
- ELREAFRLYDKEGNGYISTDVMREILAELDETLQSEDLDAMIDEIDADGSGTVDFEEFMGVMT [S34Q] — lower, 1.18 kcal/mol
- ELREAFRLYDKEGNGYISTDVMREILAELDETLPSEDLDAMIDEIDADGSGTVDFEEFMGVMT [S34P] — lower, 0.476 kcal/mol
- ELREAFRLYDKEGNGYISTDVMREILAELDETLWSEDLDAMIDEIDADGSGTVDFEEFMGVMT [S34W] — lower, 0.76 kcal/mol
- ELREAFRLYDKEGNGYISTDVMREILAELDETLMSEDLDAMIDEIDADGSGTVDFEEFMGVMT [S34M] — lower, 1.27 kcal/mol
- ELREAFRLYDKEGNGYISTDVMREILAELDETLNSEDLDAMIDEIDADGSGTVDFEEFMGVMT [S34N] — lower, 1.58 kcal/mol
- ELREAFRLYDKEGNGYISTDVMREILAELDETLHSEDLDAMIDEIDADGSGTVDFEEFMGVMT [S34H] — lower, 0.919 kcal/mol
- ELREAFRLYDKEGNGYISTDVMREILAELDETLVSEDLDAMIDEIDADGSGTVDFEEFMGVMT [S34V] — lower, 1.02 kcal/mol
- ELREAFRLYDKEGNGYISTDVMREILAELDETLKSEDLDAMIDEIDADGSGTVDFEEFMGVMT [S34K] — lower, 1.45 kcal/mol
- ELREAFRLYDKEGNGYISTDVMREILAELDETLTSEDLDAMIDEIDADGSGTVDFEEFMGVMT [S34T] — higher, 2.12 kcal/mol
- ELREAFRLYDKEGNGYISTDVMREILAELDETLSSEDMDAMIDEIDADGSGTVDFEEFMGVMT [L38M] — lower, 1.26 kcal/mol
- ELREAFRLYDKEGNGYISTDVMREILAELDETLSSEDTDAMIDEIDADGSGTVDFEEFMGVMT [L38T] — lower, 0.114 kcal/mol
- ELREAFRLYDKEGNGYISTDVMREILAELDETLSSEDCDAMIDEIDADGSGTVDFEEFMGVMT [L38C] — lower, 0.399 kcal/mol
- ELREAFRLYDKEGNGYISTDVMREILAELDETLSSEDGDAMIDEIDADGSGTVDFEEFMGVMT [L38G] — lower, -0.721 kcal/mol
- ELREAFRLYDKEGNGYISTDVMREILAELDETLSSEDQDAMIDEIDADGSGTVDFEEFMGVMT [L38Q] — lower, 0.089 kcal/mol
- ELREAFRLYDKEGNGYISTDVMREILAELDETLSSEDSDAMIDEIDADGSGTVDFEEFMGVMT [L38S] — lower, -0.47 kcal/mol
- ELREAFRLYDKEGNGYISTDVMREILAELDETLSSEDDDAMIDEIDADGSGTVDFEEFMGVMT [L38D] — lower, -0.787 kcal/mol
- ELREAFRLYDKEGNGYISTDVMREILAELDETLSSEDRDAMIDEIDADGSGTVDFEEFMGVMT [L38R] — lower, 0.432 kcal/mol
- ELREAFRLYDKEGNGYISTDVMREILAELDETLSSEDKDAMIDEIDADGSGTVDFEEFMGVMT [L38K] — lower, 0.304 kcal/mol
- ELREAFRLYDKEGNGYISTDVMREILAELDETLSSEDPDAMIDEIDADGSGTVDFEEFMGVMT [L38P] — lower, -0.322 kcal/mol
- ELREAFRLYDKEGNGYISTDVMREILAELDETLSSEDADAMIDEIDADGSGTVDFEEFMGVMT [L38A] — lower, 0.262 kcal/mol
- ELREAFRLYDKEGNGYISTDVMREILAELDETLSSEDFDAMIDEIDADGSGTVDFEEFMGVMT [L38F] — lower, 0.593 kcal/mol
- ELREAFRLYDKEGNGYISTDVMREILAELDETLSSEDIDAMIDEIDADGSGTVDFEEFMGVMT [L38I] — higher, 1.99 kcal/mol
- ELREAFRLYDKEGNGYISTDVMREILAELDETLSSEDEDAMIDEIDADGSGTVDFEEFMGVMT [L38E] — lower, -0.551 kcal/mol
- ELREAFRLYDKEGNGYISTDVMREILAELDETLSSEDHDAMIDEIDADGSGTVDFEEFMGVMT [L38H] — lower, -0.529 kcal/mol
